Experimental findings from patent publication US20130288908A1 (MITSUBISHI TANABE PHARMA, published 2013) are described below.

The target of assay [1] is T1, biotinylated Her-2 (human, UniProt P04626 23-652, biotinylated with Sulfo-NHS-SS-Biotin (sites not given)).
T1 construct: also called biotinylated antigen
Put plainly: sandwich ELISA, biotinylated antigen captured on the stAv coating (BSA coating as control), Fab detected with HRP-labeled anti-FLAG antibody, OD 405 nm. (In general: An ELISA detects its analyte on a solid surface through an enzyme-linked reagent.)

Assay [2] has as its target T2, Her-2 (human, UniProt P04626 23-652).
T2 construct: Bought protein (R&D systems); also called human EGFR-2 (Her-2); Her2 antigen
The assay can be described thus: ELISA, Her-2 immobilized at 1 µg/ml, detection with HRP-labeled anti-FLAG antibody, OD 405 nm.

B1: Fab-TT (Fab)
chain 1: MDIQMTQSPSSLSASVGDRVTITCRASQDIKNYLSWYQQQPGNAPKPLIYAGSNRQSGVPSRFSGSGSETDFTLTISSLQPEDFATYYCQQTYIYPITFGQGTKVEIKRTVAAPSVFIFPPSDEQLKSGTASVVCLLNNFYPREAKVQWKVDNALQSGNSQESVTEQDSKDSTYSLSSTLTLSKADYEKHKVYACEVTHQGLSSPVTKSFNRGEGGEQKLISEEDL
chain 2: MEVQLVESGGGLVQPGGSLRLSCAASGFTIERYAMGWVRQAPGKGLEWVGTIYPWGDYTDYADSVKGRFTISRDNSKNTLYLQMNSLRDEDTAVYYCARSNYPNGMYYVMEYWGQGTLVTVSSASTKGPSVFPLAPSSKSTSGGTAALGCLVKDYFPEPVTVSWNSGALTSGVHTFPAVLQSSGLYSLSSVVTVPSSSLGTQTYICNVNHKPSNTKVDKKVEPGSGGDYKDDDDKSSDYKDDDDKHHHHHH
notes: also called Fag-TT; TNFαR-reactive Fab
Regarding B1, the binding result in assay [1] and in assay [2] was “no binding” throughout.

B2: Fab-HT (Fab)
chain 1: not shown
chain 2: B1 chain 2
notes: also called hybrid Fab (Her-2-reactive L chain and TNFαR-reactive H chain)
With B2, in assay [2], the binding result is “no binding”.
